Test results taken from paper doi:10.1101/2025.05.09.653063 (bioRxiv, 2025).
Positions count from the first letter of the chain named. In names and notes the source's numbering stands.

B1: His-tagged wild type PsmA (natural protein, Saccharolobus islandicus REY15A, UniProt C3MQ43 1-241, looked up)
chain: MAFGPAAMGYDRAITIFSPDGSLYQVDYAFEAVKKGWTAIGIKSKSGVVIASEKRKAQSLLDVDSIEKVFLIDDHVGCSFAGLASDGRVLIDYARNIALQHRLIYDEPVSIDYLTKSVADVKQMYTQHGGVRPFGVALVIAGIDKSVPKLYMTEPSGQYMPYQAVAIGQGYYTATEFLEKNYKEDLTIEDTILLALKALSATLKPNEKLTPNTVEIGYASTQTGLFLKMTSEDKNMYLQKL
B2: His-tagged PsmA S200D (natural protein, Saccharolobus islandicus REY15A, UniProt C3MQ43 1-241, looked up)
chain: B1 chain with S200D
B3: His-tagged PsmA T213E (natural protein, Saccharolobus islandicus REY15A, UniProt C3MQ43 1-241, looked up)
chain: B1 chain with T213E

Biological target: the molecule itself
Assay: focused ion beam electron microscopy

Stoichiometry N, 14:
B1
B2
B3
